Earlier results on one molecule are cited in patent US20060104951A1, “Akt and regulation of RA synovial fibroblast apoptosis” (priority 2004, published 2006).

The test system of the data set is Akt. The conditions noted are these: Cell: HL-60.

B1: Focal adhesion kinase: pathway kinase whose overexpression activates Akt in HL-60 (protein, UniProt Q05397 2-1052, looked up)
Focal adhesion kinase 1: AAAYLDPNLNHTPNSSTKTHLGTGMERSPGAMERVLKVFHYFESNSEPTTWASIIRHGDATDVRGIIQKIVDSHKVKHVACYGFRLSHLRSEEVHWLHVDMGVSSVREKYELAHPPEEWKYELRIRYLPKGFLNQFTEDKPTLNFFYQQVKSDYMLEIADQVDQEIALKLGCLEIRRSYWEMRGNALEKKSNYEVLEKDVGLKRFFPKSLLDSVKAKTLRKLIQQTFRQFANLNREESILKFFEILSPVYRFDKECFKCALGSSWIISVELAIGPEEGISYLTDKGCNPTHLADFTQVQTIQYSNSEDKDRKGMLQLKIAGAPEPLTVTAPSLTIAENMADLIDGYCRLVNGTSQSFIIRPQKEGERALPSIPKLANSEKQGMRTHAVSVSETDDYAEIIDEEDTYTMPSTRDYEIQRERIELGRCIGEGQFGDVHQGIYMSPENPALAVAIKTCKNCTSDSVREKFLQEALTMRQFDHPHIVKLIGVITENPVWIIMELCTLGELRSFLQVRKYSLDLASLILYAYQLSTALAYLESKRFVHRDIAARNVLVSSNDCVKLGDFGLSRYMEDSTYYKASKGKLPIKWMAPESINFRRFTSASDVWMFGVCMWEILMHGVKPFQGVKNNDVIGRIENGERLPMPPNCPPTLYSLMTKCWAYDPSRRPRFTELKAQLSTILEEEKAQQEERMRMESRRQATVSWDSGGSDEAPPKPSRPGYPSPRSSEGFYPSPQHMVQTNHYQVSGYPGSHGITAMAGSIYPGQASLLDQTDSWNHRPQEIAMWQPNVEDSTVLDLRGIGQVLPTHLMEERLIRQQQEMEEDQRWLEKEERFLKPDVRLSRGSIDREDGSLQGPIGNQHIYQPVGKPDPAAPPKKPPRPGAPGHLGSLASLSSPADSYNEGVKLQPQEISPPPTANLDRSNDKVYENVTGLVKAVIEMSSKIQPAPPEEYVPMVKEVGLALRTLLATVDETIPLLPASTHREIEMAQKLLNSDLGELINKMKLAQQYVMTSLQQEYKKQMLTAAHALAVDAKNLLDVIDQARLKMLGQTRPH
For B1, the Action entry is on record as “Activates Akt”.
